Positions count from the first letter of the chain named.
Key:
[1] = biological target: T1, human OX40 on cells (CHO-hOX40, 293HEK-hOX40, Jurkat-hOX40, activated primary CD4+ T cells) (human, UniProt P43489 29-277); assay: flow cytometry, CHO-hOX40, 100 nM
T1 construct: whole, on cells; The cell type is told in each assay; also called CHO-OX40
T1 sequence (looked up): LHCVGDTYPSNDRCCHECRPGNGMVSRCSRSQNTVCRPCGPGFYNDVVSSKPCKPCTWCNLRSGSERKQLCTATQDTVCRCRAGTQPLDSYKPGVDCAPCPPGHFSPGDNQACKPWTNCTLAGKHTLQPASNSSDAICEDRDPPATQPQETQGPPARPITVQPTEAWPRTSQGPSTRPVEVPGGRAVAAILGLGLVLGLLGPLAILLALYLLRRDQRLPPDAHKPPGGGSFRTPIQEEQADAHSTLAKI

[2] = biological target: T2, human OX40_Fc (R&D Systems) (human, UniProt P43489 29-216); assay: BLI, IgG1 on tip, hOX40-Fc 50 nM, avid
T2 construct: Bought

[3] = biological target: T3, cyno OX40_Fc (Acro Biosystems) (cyno); assay: BLI, IgG1 on tip, cyno OX40-Fc 100 nM, avid
T3 construct: Bought

[4] = biological target: T4, mouse OX40Fc (Acro Biosystems) (mouse, UniProt P47741 20-211, limits assumed); assay: BLI, IgG1 on tip, mouse OX40-Fc in solution
T4 construct: Bought; not shown: Fc
T4 sequence (looked up): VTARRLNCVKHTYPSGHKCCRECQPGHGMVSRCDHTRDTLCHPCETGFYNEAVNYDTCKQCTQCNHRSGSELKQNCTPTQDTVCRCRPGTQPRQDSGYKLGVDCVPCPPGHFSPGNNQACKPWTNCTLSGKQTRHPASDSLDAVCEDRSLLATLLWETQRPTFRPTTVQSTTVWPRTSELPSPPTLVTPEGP

[5] = biological target: T1, human OX40 on cells (CHO-hOX40, …); assay: flow cytometry, MFI on CHO-hOX40 over wild-type CHO
[6] = biological target: T1, human OX40 on cells (CHO-hOX40, …); assay: cell-based or functional assay
[7] = biological target: T1, human OX40 on cells (CHO-hOX40, …); assay: flow cytometry, CHO-hOX40, 25 nM
[8] = biological target: T1, human OX40 on cells (CHO-hOX40, …); assay: flow cytometry, CHO-hOX40, 50 nM
[9] = biological target: T1, human OX40 on cells (CHO-hOX40, …); assay: flow cytometry, CHO-hOX40, 100 nM; remark: listed apart in the source
[10] = biological target: T1, human OX40 on cells (CHO-hOX40, …); assay: flow cytometry, CHO-hOX40, 200 nM
[11] = biological target: T1, human OX40 on cells (CHO-hOX40, …); assay: flow cytometry, CHO-hOX40, 12.5 nM
[12] = biological target: T1, human OX40 on cells (CHO-hOX40, …); assay: flow cytometry, CHO-hOX40, 6.25 nM
[13] = biological target: T1, human OX40 on cells (CHO-hOX40, …); assay: flow cytometry, CHO-hOX40, 3.125 nM
[14] = biological target: T1, human OX40 on cells (CHO-hOX40, …); assay: flow cytometry, CHO-hOX40, 1.5625 nM
[15] = biological target: T1, human OX40 on cells (CHO-hOX40, …); assay: flow cytometry, CHO-hOX40, 0.78125 nM
[16] = biological target: T1, human OX40 on cells (CHO-hOX40, …); assay: flow cytometry, CHO-hOX40, 0.390625 nM
[17] = biological target: T1, human OX40 on cells (CHO-hOX40, …); assay: flow cytometry, CHO-hOX40, 0.1953125 nM
[18] = biological target: T1, human OX40 on cells (CHO-hOX40, …); assay: flow cytometry, CHO-hOX40, 0.09765625 nM
[19] = biological target: T1, human OX40 on cells (CHO-hOX40, …); assay: flow cytometry, CHO-hOX40, 0.024414063 nM
[20] = biological target: T1, human OX40 on cells (CHO-hOX40, …); assay: flow cytometry, CHO-hOX40, 0.048828125 nM
[21] = biological target: T1, human OX40 on cells (CHO-hOX40, …); assay: flow cytometry, CHO-hOX40, IgG2 made in 293HEK

B1: ADI-25650, IgG1 format (antibody, V domains shown)
VH: QVQLVESGGGVVQPGRSLRLSCAASGFTFSVYNMHWVRQAPGKGLEWVAVIAYDGSAKYYADSVKGRFTISRDNSKNTLYLQMNSLRAEDTAVYYCARGRPWYSETGTSAFDIWGQGTMVTVSS
VL: DIQMTQSPSSLSASVGDRVTITCQASQDISNYLNWYQQKPGKAPKLLIYDASNLETGVPSRFSGSGSGTDFTFTISSLQPEDIATYYCQQSDHYPTFGGGTKVEIKR
notes: Made in yeast
CHO-OX40 binding intensity (MFI) [1]: 252000 MFI
Kd [2]: 0.23 nM
Kd [3]: 1.6 nM
binding result [4]: no binding (tested: 100 nM)
Fold difference [5]: 2040 fold

B2: ADI-25651, IgG1 format (antibody, V domains shown)
VH: B1 VH with V31S, Y32R, A57L
VL: B1 VL
notes: Made in yeast
CHO-OX40 binding intensity (MFI) [1]: 253000 MFI
Kd [2]: 0.268 nM
Kd [3]: 1.37 nM
binding result [4]: no binding (tested: 100 nM)
Fold difference [5]: 2340 fold

B3: ADI-25653, IgG1 format (antibody, V domains shown)
VH: B1 VH with S30V, V31S, A52M
VL: B1 VL
notes: Made in yeast
CHO-OX40 binding intensity (MFI) [1]: 252000 MFI
Kd [2]: 0.223 nM
Kd [3]: 1.15 nM
binding result [4]: no binding (tested: 100 nM)
Fold difference [5]: 2320 fold

B4: ADI-25654, IgG1 format (antibody, V domains shown)
VH: B1 VH with S30R, V31S, N33D, V50Y, A57N
VL: B1 VL
notes: Made in yeast or CHO cells; also called ADI-25654-g1
EC50, NFkB-luciferase reporter in Jurkat-hOX40 mixed with Raji cells [6]: 0.0282 nM
CHO-OX40 binding intensity (MFI) [1]: 252000 MFI
Kd [2]: 0.283 nM
Kd [3]: 1.53 nM
binding result [4]: no binding (tested: 100 nM)
Fold difference [5]: 2260 fold

B5: ADI-23515, IgG2 format (antibody)
heavy: QVQLQESGPGLVKPSQTLSLTCTVSGGSIRSGAYYWSWIRQHPGKGLEWIGYIYYDGQTYYNPSLKSRVTISVDTSKNQFSLKLSSVTAADTAVYYCARDVGYPHYYGMDVWGQGTTVTVSSASTKGPSVFPLAPCSRSTSESTAALGCLVKDYFPEPVTVSWNSGALTSGVHTFPAVLQSSGLYSLSSVVTVPSSNFGTQTYTCNVDHKPSNTKVDKTVERKCCVECPPCPAPPVAGPSVFLFPPKPKDTLMISRTPEVTCVVVDVSHEDPEVQFNWYVDGVEVHNAKTKPREEQFNSTFRVVSVLTVVHQDWLNGKEYKCKVSNKGLPAPIEKTISKTKGQPREPQVYTLPPSREEMTKNQVSLTCLVKGFYPSDIAVEWESNGQPENNYKTTPPMLDSDGSFFLYSKLTVDKSRWQQGNVFSCSVMHEALHNHYTQKSLSLSPG
light: EIVLTQSPGTLSLSPGERATLSCRASQSVSSSYLAWYQQKPGQAPRLLIYGASSRATGIPDRFSGSGSGTDFTLTISRLEPEDFAVYYCQQSERSPFTFGGGTKVEIKRTVAAPSVFIFPPSDEQLKSGTASVVCLLNNFYPREAKVQWKVDNALQSGNSQESVTEQDSKDSTYSLSSTLTLSKADYEKHKVYACEVTHQGLSSPVTKSFNRGEC
EC50, NFkB-luciferase reporter in Jurkat-hOX40 [6]: 0.39 nM

B6: ADI-20051, IgG2 format (antibody)
heavy: QVQLQQWGAGLLKPSETLSLTCAVYGGSFSGYYWSWIRQPPGKGLEWIGEIDHSGSTNYNPSLKSRVTISVDTSKNQFSLKLSSVTAADTAVYYCARDGGGGYASPFDYWGQGTLVTVSSASTKGPSVFPLAPCSRSTSESTAALGCLVKDYFPEPVTVSWNSGALTSGVHTFPAVLQSSGLYSLSSVVTVPSSNFGTQTYTCNVDHKPSNTKVDKTVERKCCVECPPCPAPPVAGPSVFLFPPKPKDTLMISRTPEVTCVVVDVSHEDPEVQFNWYVDGVEVHNAKTKPREEQFNSTFRVVSVLTVVHQDWLNGKEYKCKVSNKGLPAPIEKTISKTKGQPREPQVYTLPPSREEMTKNQVSLTCLVKGFYPSDIAVEWESNGQPENNYKTTPPMLDSDGSFFLYSKLTVDKSRWQQGNVFSCSVMHEALHNHYTQKSLSLSPG
light: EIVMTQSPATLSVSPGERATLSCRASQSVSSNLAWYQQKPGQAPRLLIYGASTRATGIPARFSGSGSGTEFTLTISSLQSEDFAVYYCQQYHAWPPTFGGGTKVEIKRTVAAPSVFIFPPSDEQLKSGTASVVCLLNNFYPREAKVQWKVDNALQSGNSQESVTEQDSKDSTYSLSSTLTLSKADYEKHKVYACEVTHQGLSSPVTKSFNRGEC
notes: Made in 293HEK cells
MFI [7]: 2.33e+06 MFI
MFI [8]: 2.1e+06 MFI
MFI [9]: 2.35e+06 MFI
MFI [10]: 2.51e+06 MFI
MFI [11]: 1.62e+06 MFI
MFI [12]: 1.33e+06 MFI
MFI [13]: 913000 MFI
MFI [14]: 611000 MFI
MFI [15]: 315000 MFI
MFI [16]: 156000 MFI
MFI [17]: 80500 MFI
MFI [18]: 40700 MFI
MFI [19]: 20900 MFI
MFI [20]: 19400 MFI
EC50 [21]: 5.49 nM

B7: ADI-20118, IgG2 format (antibody)
heavy: QVQLVQSGAEVKKPGASVKVSCKASGYTFTSYAISWVRQAPGQGLEWMGWISAYNGNTNYAQKLQGRVTMTTDTSTSTAYMELRSLRSDDTAVYYCARSGGGSGPNWFDPWGQGTLVTVSSASTKGPSVFPLAPCSRSTSESTAALGCLVKDYFPEPVTVSWNSGALTSGVHTFPAVLQSSGLYSLSSVVTVPSSNFGTQTYTCNVDHKPSNTKVDKTVERKCCVECPPCPAPPVAGPSVFLFPPKPKDTLMISRTPEVTCVVVDVSHEDPEVQFNWYVDGVEVHNAKTKPREEQFNSTFRVVSVLTVVHQDWLNGKEYKCKVSNKGLPAPIEKTISKTKGQPREPQVYTLPPSREEMTKNQVSLTCLVKGFYPSDIAVEWESNGQPENNYKTTPPMLDSDGSFFLYSKLTVDKSRWQQGNVFSCSVMHEALHNHYTQKSLSLSPG
light: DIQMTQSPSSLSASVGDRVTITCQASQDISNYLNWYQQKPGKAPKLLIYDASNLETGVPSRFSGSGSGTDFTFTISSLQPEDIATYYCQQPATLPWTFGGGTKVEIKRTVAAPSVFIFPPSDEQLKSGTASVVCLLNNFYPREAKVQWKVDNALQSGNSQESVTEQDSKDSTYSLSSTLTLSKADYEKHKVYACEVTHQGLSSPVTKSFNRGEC
notes: Made in 293HEK cells
MFI [7]: 1.5e+06 MFI
MFI [8]: 1.38e+06 MFI
MFI [9]: 1.53e+06 MFI
MFI [10]: 1.72e+06 MFI
MFI [11]: 1.13e+06 MFI
MFI [12]: 889000 MFI
MFI [13]: 600000 MFI
MFI [14]: 352000 MFI
MFI [15]: 207000 MFI
MFI [16]: 120000 MFI
MFI [17]: 60400 MFI
MFI [18]: 36800 MFI
MFI [19]: 16500 MFI
MFI [20]: 18400 MFI
EC50 [21]: 5.84 nM

Reference: US20200140562A1 (Innovent, published 2020)
